We go through two substances from paper PMC2915839 (Journal of the American Chemical Society, 2010).

For one data set, the target named is ^15N-labeled Aβ(1–40) (Homo sapiens, UniProt P05067). Nature of the data set: Intermolecular paramagnetic relaxation enhancement. It counts as binding.
The target of data set [1] is T1, NMR invisible oligomeric species of Aβ (1–40) (Homo sapiens, UniProt P05067). It counts as binding.
The nature of data set [2]: Dynamic light scattering / transmission EM of equilibrated samples. The note with it: equilibrated 150 and 300 µM samples. It counts as physicochemical.
For data set [3] the following is noted: 150 µM total; 50 mM HEPES, pH 6.8, 10°C.
Data set [4] deals with T1, NMR invisible oligomeric species of Aβ (1–40). Nature of the data set: 15N-R2 and 1HN-R2 transverse relaxation. It counts as binding.

Several values for one entry are separate records, joined by “and”; a condition that tells them apart may be missing. Equal entries are not always repeated.

T1 sequence (P05067 672-711 limits assumed): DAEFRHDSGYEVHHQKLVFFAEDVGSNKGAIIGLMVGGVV
Chain of ^15N-labeled Aβ(1–40) (P05067 672-711 limits assumed): as above

Turning to “Aβ(1–40): amyloid β (Aβ) peptide (1–40), uniformly 15N-labeled, prepared from NaOH treated stocks to remove fibril seeds”, in the data set with ^15N-labeled Aβ(1–40) (if present, or exchange is slow on the PRE time scale (< ca. 1 ms)), the “population of lower order, transient, self-associated states” value is reported as 1–2%. Further, in data set [1], the “timescale of monomer-oligomer dynamic equilibrium” value was in the range of 10 to 15 ms. Also, in data set [1] (60 µM), the fraction of oligomers result is given as “negligible”. For the same substance, in data set [1] (60 µM, until pulse approaches resonances of the protein), the “effect of off-resonance saturation pulse on amide signal intensity” value is on record as “no effect on the signal intensity of the amide resonances”. In addition, the “effect of CW pulse far off-resonance on amide resonances” value in data set [1] (300 µM, RF 180 and 350 Hz) is recorded as “uniformly attenuated”. Moreover, the “fraction of peptide within dark oligomeric state exchanging with free monomer” value in data set [1] (abstract, concentration not specified) was ~ 3%. Moreover, the “peptides within the oligomer undergoing exchange with free monomer, 1 in about N” value in data set [1] (from fex) is “about 30”. The “mobility of N-terminal 9 residues upon association with oligomer” value in data set [1] (from regional specificity of ΔR2) was “remain highly mobile”. Further, in data set [2], the “presence of aggregates by dynamic light scattering” value is on record as “presence of large polydisperse aggregates was confirmed”. For the same substance, in data set [2] (negatively stained, >3 weeks), the “morphology by transmission EM” value is reported as “elongated morphologically disordered non-fibrillar aggregates with possibly some small needle-like fibrils present”. Moreover, the “monomer concentration at pseudo-equilibrium” value in data set [3] is listed as 105 µM. In addition, in data set [4] (300 µM total, pH 6.8, 10°C), the “konapp (apparent first order rate constant, monomer to oligomer)” value is 3.1 s^−1 and ~ 3 s^−1. Moreover, the 1HN-R1 of monomer in data set [4] (Aβ(1–40) monomer, 10°C) was found to be 1 s⁻¹.

On to “F20C: single-cysteine variant Aβ(1–40), F20C mutation in the center of the peptide, conjugated to a nitroxide spin-label or a diamagnetic analogue”, for which the “intermolecular PREs, in words” value in the data set with ^15N-labeled Aβ(1–40) (100 µM U-[15N]-Aβ(1–40) + 170 µM spin-labeled F20C variant) was “essentially no intermolecular PREs were observed”.
